Measured values reported in IntAct's records for PubMed 16482218.

B1: Transcription factor Dp-2 (Mus musculus), Q64163-4 (parent)
chain: MIISTPQRIANSGSVLIGNPYTPAPAMVTQTHIAEAAGWVPSDRKRAREFIDSDFSESKRSKKGDKNGKGLRHFSMKVCEKVQRKGTTSYNEVADELVSEFTNSNNHLAADSAYDQENIRRRVYDALNVLMAMNIISSLPTGKKRNQVDCNSAQECQNLEIEKQRRIERIKQKRAQLQELLLQQIAFKNLVQRNRQNEQQNQGPPAVNSTIQLPFIIINTSRKTVIDCSISSDKFEYLFNFDNTFEIHDDIEVLKRMGMSFGLESGKCSLEDLKIARSLVPKALEGYITDISTGPSWLNQGLLLNSTQSVSNLDPTTGATVPQSSVNQGLCLDAEVALATGQLPASNSHQSSSAASHFSESRGETPCSFNDEDEEDEEEDPSSPE

Variants of: B1
Settings: with 1433e_mouse Ywhae

Effect of a mutation on the interaction, disrupting interaction:
S58A
S42A
S56A
S53A
S61A
